These results are taken from patent US20240059784A1 (Eli Lilly, published 2024).

Assay [1] addresses T1, cynomolgus TfR (on MDCK cells) (cynomolgus, UniProt H9EXL1 1-760 (rhesus entry)).
T1 construct: whole, on cells; also called Cyno MDCK
Put plainly: flow cytometry on MDCK cells engineered to express cynomolgus TfR, on ice, PE-labeled secondary. The protocol:
(§1) Human endothelial line hCMEC-D3 (EMD Millipore SC066), endogenously expressing human TfR and MDCK cell line (ATCC CCL-34), engineered to express cynomolgus TfR were utilized to evaluate antibody/protein binding to cell-bound TfR. Cells were grown and maintained at submaximal confluence and detached from cultureware using Accutase cell detachment solution, washed, and allocated at 50000 cells per well for assessment of binding. Cells were treated with a viability stain then subsequently incubated with titrated concentrations of TfR binding proteins on ice. Cells were washed and binding of test antibodies or proteins was detected using a PE-labeled secondary reagent. Cells were then washed and read on the same day using a BioRad ZE5 cytometer. Analysis was performed post-acquisition in FlowJo, analyzing fluorescence of single, viable, non-debris events. EC50 values were derived by plotting geometric median PE intensity values across a given sample titration and fitting a sigmoidal (4PL) response curve in GraphPad Prism 8.3.0.
In general terms: In flow cytometry, cells or beads pass a laser one at a time.

The next assay deals with T2, human TfR (cell-bound) (human, UniProt P02786 1-760).
T2 construct: Endogenous receptor on hCMEC-D3 cells (stated); also called hTFR; human transferrin receptor on hCMEC-D3 cells
T2 sequence (P02786 whole entry): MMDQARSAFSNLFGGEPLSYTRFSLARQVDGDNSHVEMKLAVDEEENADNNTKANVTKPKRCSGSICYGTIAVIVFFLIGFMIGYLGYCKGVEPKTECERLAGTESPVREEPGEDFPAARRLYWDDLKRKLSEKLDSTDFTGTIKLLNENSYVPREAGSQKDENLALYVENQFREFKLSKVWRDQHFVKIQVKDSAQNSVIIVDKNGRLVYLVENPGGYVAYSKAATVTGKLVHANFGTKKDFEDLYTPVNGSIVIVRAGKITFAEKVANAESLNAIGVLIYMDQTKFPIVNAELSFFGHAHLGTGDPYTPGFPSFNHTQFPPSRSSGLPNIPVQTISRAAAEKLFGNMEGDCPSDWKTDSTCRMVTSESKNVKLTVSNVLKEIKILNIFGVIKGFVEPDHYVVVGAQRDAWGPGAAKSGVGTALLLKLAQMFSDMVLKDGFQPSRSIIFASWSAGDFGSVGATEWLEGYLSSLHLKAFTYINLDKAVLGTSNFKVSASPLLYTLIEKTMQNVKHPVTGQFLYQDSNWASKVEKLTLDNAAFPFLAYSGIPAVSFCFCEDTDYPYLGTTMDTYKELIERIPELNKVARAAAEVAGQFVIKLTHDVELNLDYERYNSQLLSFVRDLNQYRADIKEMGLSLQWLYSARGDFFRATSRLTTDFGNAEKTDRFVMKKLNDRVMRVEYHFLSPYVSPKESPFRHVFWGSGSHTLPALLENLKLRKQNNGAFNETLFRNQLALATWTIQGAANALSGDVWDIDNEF
Put plainly: flow cytometry on hCMEC-D3 cells (endogenous human TfR), on ice, PE-labeled secondary. How it is done:
as §1

Assay [2] deals with T3, human TfR ECD (His-tagged) (human, UniProt P02786 89-760).
T3 construct: also called hTfR-ECD-6His; his-tagged hTfR-ECD
Put plainly: SPR (Biacore 8K), 37 C; TfR ECD amine-coupled to CM4 chip, TBP as analyte; multi-cycle kinetics, 2-state fit; n = 3. The protocol:
(§2) Target human and cynomolgous TfR ECD's were immobilized on a CM4 chip (Cytiva P/N 29104989) using standard NHS-EDC amine coupling. The TfR binding proteins were prepared at a final concentration of 0.3, 0.1, 0.033, 0.01, 0.0033, 0.001, 0.00033, 0.0001 μM respectively by dilution of stock solution into running buffer.
(§3) Binding analysis was performed in a multi-cycle kinetics manner. Each analysis cycle consists of (1) injection of the lowest to highest concentration proteins over all Fc at 50 μL/min for 140 seconds followed by return to buffer flow for 400 seconds to monitor dissociation phase; (2) regeneration of chip surfaces with injection of 3M magnesium chloride, for 30 seconds at 100 μL/min over all cells; and (3) equilibration of chip surfaces with a 50 μL (30-sec) injection of HBS-EP+. Data were processed using standard double-referencing and fit to a 2-state binding model using Biacore 8K Evaluation software, to determine the association rate (kₒₙ, M⁻¹s⁻¹ units), dissociation rate (koff, s⁻¹ units), and Rₘₐₓ (RU units). The equilibrium dissociation constant (KD) is calculated from the relationship KD=koff/kₒₙ, and is in molar units.
On the technique in general: Surface plasmon resonance follows binding to a sensor surface in real time, without labels.

In assay [3] the target is T3, human TfR ECD (His-tagged). The assay can be described thus: SPR (Biacore 8K), 25 C; His-tagged TfR ECD captured by anti-His antibody, TBP as analyte; single-cycle kinetics, 2-state fit. The protocol:
(§4) An anti-His antibody was immobilized on a CM5 chip (Cytiva P/N 29104988) using standard NHS-EDC amine coupling on all four flow cells (Fc). Target (human or cynomolgus TfR ECD) were prepared in the running buffer at final concentration of 500 μg/mL.
(§5) Binding analysis was performed in a single-cycle kinetics manner. Each analysis cycle consists of (1) capturing the target (His-tagged human or cynomolgus TfR ECD) samples on separate flow cells (Fc2, Fc3 and Fc4); (2) injection of the lowest to highest concentration of antibodies or proteins over all Fc at 30 μL/min for 900 seconds followed by return to buffer flow for 1800 seconds to monitor dissociation phase; (3) regeneration of chip surfaces with injection of 10 mM glycine, pH 1.5, for 30 seconds at […] over all cells; and (4) equilibration of chip surfaces with a 10 μL (60-sec) injection of HBS-EP+. Data were processed using standard double-referencing and fit to a 2-state binding model using Biacore 8K Evaluation software, to determine the association rate (kₒₙ, M⁻¹s⁻¹ units), dissociation rate (koff, s⁻¹ units), and Rₘₐₓ (RU units). The equilibrium dissociation constant (KD) is calculated from the relationship KD=koff/kₒₙ, and is in molar units.
Target sequence in this assay (P02786 other isoform, or with tags, fused parts or gaps): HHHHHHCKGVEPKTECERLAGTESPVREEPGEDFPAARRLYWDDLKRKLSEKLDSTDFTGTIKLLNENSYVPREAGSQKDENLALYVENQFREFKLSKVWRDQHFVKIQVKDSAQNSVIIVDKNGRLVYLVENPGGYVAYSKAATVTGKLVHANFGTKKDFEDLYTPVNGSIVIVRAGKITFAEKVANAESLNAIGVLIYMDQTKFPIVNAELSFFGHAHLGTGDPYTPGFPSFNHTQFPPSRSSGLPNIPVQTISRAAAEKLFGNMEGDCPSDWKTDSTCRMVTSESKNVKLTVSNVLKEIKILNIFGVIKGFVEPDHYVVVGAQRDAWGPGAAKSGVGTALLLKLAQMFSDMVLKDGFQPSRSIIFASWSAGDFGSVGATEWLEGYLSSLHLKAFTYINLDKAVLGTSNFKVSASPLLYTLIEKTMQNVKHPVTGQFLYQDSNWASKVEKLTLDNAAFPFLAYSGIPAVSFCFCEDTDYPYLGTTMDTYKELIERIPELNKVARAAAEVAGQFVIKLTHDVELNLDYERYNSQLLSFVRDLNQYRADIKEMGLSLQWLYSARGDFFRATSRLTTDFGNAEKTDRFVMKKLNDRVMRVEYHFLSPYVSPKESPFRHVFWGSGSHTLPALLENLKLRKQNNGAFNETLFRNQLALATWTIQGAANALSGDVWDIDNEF

The target of assay [4] is T4, cynomolgus TfR ECD (cynomolgus).
T4 chain: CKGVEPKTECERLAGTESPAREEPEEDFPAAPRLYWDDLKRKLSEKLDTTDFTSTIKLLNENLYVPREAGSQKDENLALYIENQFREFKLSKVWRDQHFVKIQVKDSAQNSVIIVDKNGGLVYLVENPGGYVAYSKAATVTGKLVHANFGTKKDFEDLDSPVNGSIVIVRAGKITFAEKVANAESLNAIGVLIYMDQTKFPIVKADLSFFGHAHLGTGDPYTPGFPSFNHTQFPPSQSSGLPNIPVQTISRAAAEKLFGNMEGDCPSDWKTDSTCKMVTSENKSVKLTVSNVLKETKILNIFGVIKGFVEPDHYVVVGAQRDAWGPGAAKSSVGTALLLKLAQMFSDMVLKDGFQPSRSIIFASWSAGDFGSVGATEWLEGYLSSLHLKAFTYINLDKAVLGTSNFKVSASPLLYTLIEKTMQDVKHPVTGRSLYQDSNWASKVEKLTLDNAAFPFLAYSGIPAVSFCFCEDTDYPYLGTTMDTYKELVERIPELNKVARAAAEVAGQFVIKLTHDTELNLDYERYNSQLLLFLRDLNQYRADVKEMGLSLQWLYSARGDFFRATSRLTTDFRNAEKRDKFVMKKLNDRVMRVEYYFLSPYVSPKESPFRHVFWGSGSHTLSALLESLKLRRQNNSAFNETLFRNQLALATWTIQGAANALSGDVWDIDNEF
The description is as above. How it is done: as §4, §5

Assay [5] concerns the target T4, cynomolgus TfR ECD. Put plainly: SPR (Biacore 8K), 37 C; TfR ECD amine-coupled to CM4 chip, TBP as analyte; multi-cycle kinetics, 2-state fit; n = 3. The protocol:
as §2, §3

In assay [6] the target is T5, cynomolgus TfR ECD (cynomolgus).
T5 construct: extracellular domain; amine-coupled in the 37 C assay; also called Cyno TfR; His-tagged cynomolgus TfR ECD
Described as above. How it is done: as §2, §3

B1: TBP1 (TBD1 Fab-hIgG4PAA Fc) (antibody, V domains shown)
VH: EVQLVESGGGLVKPGGSLRLSCVASGFTFSSYSMNWVRQAPGKGLEWVSSISRSSSYIYYADSVKGRFTISRDNAKNSLYLQMNSLRAEDTAVYYCAREHGYSNSDAFDIWGQGTLVTVSS
VL: DIQMTQSPSAMSASVGDRVTITCRASQGISNYLAWFQQKPGKVPKRLIYAASSLQSGVPSRFSGSGSGTEFTLTISSLQPEDFATYYCLQHNSYPRTFGQGTKVEIKR
In general, EC50 refers to the midpoint of the concentration-response curve. By Kd is commonly meant the equilibrium constant for the complex coming apart. Lower therefore signals a tighter complex. Regarding B1, the figures for the EC50 (in assay [1]; with human TfR (cell-bound)) were 510 nM and 0.47 nM, respectively. Besides, the values for the Kd (in assay [2]; in assay [3]; with cynomolgus TfR ECD [4]) were 0.966 nM, 110 pM and 145 nM, respectively.

B2: TBP3 (TBD3 Fab-hIgG4PAA Fc) (antibody, V domains shown)
VH: EVQLVESGGGLVKPGGSLRLSCVASGFTFSSYSMNWVRQAPGKGLEWVSSISRSSSYIYYADSVKGRFTISRDNAKNSLYLQMNSLRAEDTAVYYCARIHGYSNSDAFDIWGQGTLVTVSS
VL: DIQMTQSPSAMSASVGDRVTITCRASQGISHYLVWFQQKPGKVPKRLIYAASSLQSGVPSRFSGSGSGTEFTLTISSLQPEDFATYYCLQHNSYPRTFGQGTKVEIKR
notes: Fab-Fc format, one HC and one LC
With B2, the EC50 in assay [1] is 0.15 nM; with human TfR (cell-bound) it was 0.14 nM. Further, the equilibrium dissociation constant (Kd) came out at 0.005 nM in assay [2], 0.254 nM with cynomolgus TfR ECD [5], 0.048 pM in assay [3] and 0.015 nM in the assay with cynomolgus TfR ECD [4].

B3: TBP5 (TBD5 Fab-hIgG4PAA Fc) (antibody, V domains shown)
VH: EVQLVESGGGLVQPGGSLRLSCAASGFTFRTYWMHWVRQAPGKGLLWVSRINGDGSRTNYADSVKGRFTISRDNAKKTLYLQMNSLRAEDTAVYFCARSSYAFDVWGQGTMVTVSS
VL: DVVMTQTPLSLPVTPGEPASISCRSSQSLLDSDDGSTYLDWYLQKPGQSPQLLIYLLSNRASGVPDRFSGSGSGTVFTLKISSVEAADVGVYYCMQRIEFPLTFGGGTKVEIKR
notes: as for B2
Turning to B3, the EC50 in assay [1] came to 1.63 nM; with human TfR (cell-bound), 4.83 nM. The Kd was 4.25 nM in assay [2], 156 nM in the assay with cynomolgus TfR ECD [5], 590 pM in assay [3] and 1.47 nM with cynomolgus TfR ECD [4].

B4: TBP6 (TBD6 Fab-hIgG4PAA Fc) (antibody, V domains shown)
VH: EVQLVESGGGLVQPGGSLRLSCAASGFTFRTYWMHWVRQAPGKGLVWVSRINSDGSRTNYADSVKGRFTISRDNAKNTLYLQMNSLRAEDTAVYYCARSSYAFDVWGQGTLVTVSS
VL: DIVMTQTPLSLPVTPGEPASISCRSSQSLLDSDDGSTYLDWYLQKPGQSPQLLIYLLSNRASGVPDRFSGSGSGTDFTLKISRVEAEDVGVYYCMQRIEFPLTFGGGTKVEIKR
notes: as for B2
B4: the concentration for a half-maximal effect (EC50) in assay [1] worked out at 0.76 nM; with human TfR (cell-bound), 1.2 nM. Besides, the Kd in assay [2] amounted to 2.25 nM; with cynomolgus TfR ECD [5] it was 92.5 nM; in assay [3], 60 pM; with cynomolgus TfR ECD [4], 7.7 nM.

B5: TBP14-SNCA siRNA (dsRNA No. 10 in Table 11a) (antibody)
heavy: EVQLVESGGGLVKPGGSLRLSCVASGFTFSSYSMNWVRQAPGKGLEWVSSISSSSSYIYYADSVKGRFTISRDNAKNSLYLQMNSLRAEDTAVYYCARRHGYSNSDAFDNWGQGTLVTVSSASTKGPSVFPLAPCSRSTSESTAALGCLVKDYFPEPVTVSWNSGALTSGVHTFPAVLQSSGLYSLSSVVTVPSSSLGTKTYTCNVDHKPSNTKVDKRVESKYGPPCPPCPAPEAAGGPSVFLFPPKPKDTLMISRTPEVTCVVVDVSQEDPEVQFNWYVDGVEVHNAKTKPREEQFNSTYRVVSVLTVLHQDWLNGKEYKCKVSNKGLPSSIEKTISKAKGQPREPQVSTLPPSQEEMTKNQVSLMCLVYGFYPSDICVEWESNGQPENNYKTTPPVLDSDGSFFLYSVLTVDKSRWQEGNVFSCSVMHEALHNHYTQKSLSLSLG
light: DIQMTQSPSAMSASVGDRVTITCRASQGISHYLVWFQQKPGKVPKRLIYAASSLQSGVPSRFSGSGSGTEFTLTISSLQPEDFATYYCLQHNSYPWTFGQGTKVEIKRTVAAPSVFIFPPSDEQLKSGTASVVCLLNNFYPREAKVQWKVDNALQSGNSQESVTEQDSKDSTYSLSSTLTLSKADYEKHKVYACEVTHQGLSSPVTKSFNRGEC
chain: ESKYGPPCPPCPAPEAAGGPSVFLFPPKPKDTLMISRTPEVTCVVVDVSQEDPEVQFNWYVDGVEVHNAKTKPREEQFNSTYRVVSVLTVLHQDWLNGKEYKCKVSNKGLPSSIEKTISKAKGQPREPQVYTLPPSQGDMTKNQVQLTCLVKGFYPSDICVEWESNGQPENNYKTTPPVLDSDGSFFLASRLTVDKSRWQEGNVFSCSVMHEALHNHYTQKSLSLSLG
modifications: SNCA siRNA (dsRNA No. 10) conjugated through a linker at the engineered cysteine (A378C, EU numbering, by the name in Table 6b)
notes: Protein-siRNA conjugate of TBP14; also called TBP14-SNCA siRNA conjugate
As for B5, the results for the EC50 (in assay [1]; with human TfR (cell-bound)) were 225 nM and 298 nM, respectively. In assay [2], this molecule returned a Kd of 541 nM.

B6: TBP14 (TBD4-one arm heteromab, A378C) (antibody, human IgG4 S228P, kappa, F234A L235A)
heavy: EVQLVESGGGLVKPGGSLRLSCVASGFTFSSYSMNWVRQAPGKGLEWVSSISSSSSYIYYADSVKGRFTISRDNAKNSLYLQMNSLRAEDTAVYYCARRHGYSNSDAFDNWGQGTLVTVSSASTKGPSVFPLAPCSRSTSESTAALGCLVKDYFPEPVTVSWNSGALTSGVHTFPAVLQSSGLYSLSSVVTVPSSSLGTKTYTCNVDHKPSNTKVDKRVESKYGPPCPPCPAPEAAGGPSVFLFPPKPKDTLMISRTPEVTCVVVDVSQEDPEVQFNWYVDGVEVHNAKTKPREEQFNSTYRVVSVLTVLHQDWLNGKEYKCKVSNKGLPSSIEKTISKAKGQPREPQVSTLPPSQEEMTKNQVSLMCLVYGFYPSDICVEWESNGQPENNYKTTPPVLDSDGSFFLYSVLTVDKSRWQEGNVFSCSVMHEALHNHYTQKSLSLSLG
light: DIQMTQSPSAMSASVGDRVTITCRASQGISHYLVWFQQKPGKVPKRLIYAASSLQSGVPSRFSGSGSGTEFTLTISSLQPEDFATYYCLQHNSYPWTFGQGTKVEIKRTVAAPSVFIFPPSDEQLKSGTASVVCLLNNFYPREAKVQWKVDNALQSGNSQESVTEQDSKDSTYSLSSTLTLSKADYEKHKVYACEVTHQGLSSPVTKSFNRGEC
chain: ESKYGPPCPPCPAPEAAGGPSVFLFPPKPKDTLMISRTPEVTCVVVDVSQEDPEVQFNWYVDGVEVHNAKTKPREEQFNSTYRVVSVLTVLHQDWLNGKEYKCKVSNKGLPSSIEKTISKAKGQPREPQVYTLPPSQGDMTKNQVQLTCLVKGFYPSDICVEWESNGQPENNYKTTPPVLDSDGSFFLASRLTVDKSRWQEGNVFSCSVMHEALHNHYTQKSLSLSLG
notes: One-armed antibody: two heavy chains (HC1 full, HC2 Fc only) and one light chain; no LC2
Take B6: the dissociation constant (Kd) with cynomolgus TfR ECD [6] was found to be 300 nM; in assay [2] it was 154 nM.
